The pKa is the negative logarithm of the acid dissociation constant. Broadly, the stoichiometry N is a count of units in the complex or per binding partner.

The values below come from PMC4491210.

One data set relates to Cys. The note with it: cited from earlier work.
The target of a further data set is Cys89 (UniProt position 89, FGRNGCSYCER). As to the kind of experiment: UV-vis. The following applies: 25 °C; 200 mM NaCl; 10 mM Tris, 10 mM sodium citrate, 1 mM EDTA; Reduced protein referenced to oxidized protein; about 20 µM protein.
Another data set deals with Cys92 (UniProt position 92, NGCSYCERFKK). As to the kind of experiment: UV-vis. The following applies: 25 °C; 200 mM NaCl; 10 mM Tris, 10 mM sodium citrate, 1 mM EDTA; Reduced protein referenced to oxidized protein; about 20 µM protein.
Data set [1] addresses HP0377 lacking its own signal sequence (residues 25-221 of native HP0377) with a C-terminal 6 His tag (Helicobacter pylori 26695). Nature of the data set: SEC; Superdex75 HiLoad 16/600, 20 mM Tris pH 8, 150 mM NaCl, absorbance at 280 nm, calibrated with Bio-Rad Gel Filtration Standard; monomer and dimer peaks. On the technique in general: SEC sorts molecules by how far they enter the pores of the column.

Data set [2] has the same target. Nature of the data set: cross-linking; glutaraldehyde 0.001-0.1 % v/v, HP0377 2.5 mg/ml, room temperature, 20 min, 0.05 M bicine-NaOH pH 8.5, 0.1 mM DTT, 0.4 M NaCl, quenched with ethanolamine-HCl; SDS-PAGE; monomer to dimer.

For CcmG (DsbE) (Escherichia coli), the pKa in the data set with Cys is on record as 6.8.

Consider DsbA (Escherichia coli), for which, in the data set on Cys, the pKa is listed as 3.5.

Regarding DsbC (Escherichia coli), the pKa in the data set on Cys was 4.1 ± 0.3.

In the case of “HP0377 (CcmG/DsbE/ResA-like thiol:disulfide oxidoreductase) (Helicobacter pylori 26695)”, the pKa with Cys89 was 3.56 ± 0.11; in the data set with Cys92 it was 9.23 ± 0.21.

As for “HP0377 lacking its own signal sequence (residues 25-221 of native HP0377) with a C-terminal 6 His tag (domain or fragment)”, the stoichiometry N in data set [1] and in data set [2] was 2 in each case.

Take ResA (Bacillus subtilis): the pKa with Cys is 8.8.
